Residue numbers refer to the chain shown, from its start. Like-named read-outs stand apart in the source and are kept apart here.
Assays:
[1] = biological target: T1, gH/gL protein of varicella-zoster virus, native, on VZV (Oka) virions and VZV-infected MRC5 cells (varicella-zoster virus (Oka), UniProt Q775J3 18-841); assay: cell-based or functional assay
[2] = biological target: T1, gH/gL protein of varicella-zoster …; assay: cell-based or functional assay; remark: listed apart in the source
[3] = biological target: T2, varicella-zoster virus recombinant protein gH-His/gL (varicella-zoster virus strain Oka, UniProt Q775J3 18-795; Q9J3N1 23-160); assay: competition ELISA on coated gH/gL; competitor: phage H4H8-L1B7 (same clone), bound phage detected with HRP-anti-M13
T2 sequence (Q775J3 18-795, tags left off, chain 1 of 2): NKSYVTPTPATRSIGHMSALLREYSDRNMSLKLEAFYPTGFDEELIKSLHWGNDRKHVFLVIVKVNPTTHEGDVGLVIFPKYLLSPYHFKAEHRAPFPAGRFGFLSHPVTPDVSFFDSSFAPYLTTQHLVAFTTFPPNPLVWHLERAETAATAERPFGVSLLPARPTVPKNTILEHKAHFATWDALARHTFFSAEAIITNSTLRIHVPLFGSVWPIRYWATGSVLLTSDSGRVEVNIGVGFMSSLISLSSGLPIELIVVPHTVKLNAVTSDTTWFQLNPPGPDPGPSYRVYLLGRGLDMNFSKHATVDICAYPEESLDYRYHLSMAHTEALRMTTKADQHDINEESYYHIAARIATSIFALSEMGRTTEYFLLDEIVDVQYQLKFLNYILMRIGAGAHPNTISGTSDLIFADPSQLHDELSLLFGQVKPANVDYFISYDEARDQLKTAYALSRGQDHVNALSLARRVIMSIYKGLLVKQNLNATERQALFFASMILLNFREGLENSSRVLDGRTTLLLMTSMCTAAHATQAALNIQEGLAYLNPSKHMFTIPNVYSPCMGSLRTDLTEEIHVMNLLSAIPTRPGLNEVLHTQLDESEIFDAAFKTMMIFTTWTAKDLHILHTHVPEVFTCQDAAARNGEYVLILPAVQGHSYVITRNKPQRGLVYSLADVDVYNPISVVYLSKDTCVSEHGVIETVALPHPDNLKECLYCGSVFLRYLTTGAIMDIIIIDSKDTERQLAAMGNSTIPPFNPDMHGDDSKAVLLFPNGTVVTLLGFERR
T2 sequence (Q9J3N1 23-160 limits assumed, chain 2 of 2): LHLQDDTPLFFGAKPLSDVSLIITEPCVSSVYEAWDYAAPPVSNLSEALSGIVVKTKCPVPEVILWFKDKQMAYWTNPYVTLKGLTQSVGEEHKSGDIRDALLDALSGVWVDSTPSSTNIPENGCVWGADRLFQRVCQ

[4] = biological target: T2, varicella-zoster virus recombinant …; assay: solid-phase phage display screening on gH-His/gL
[5] = biological target: T1, gH/gL protein of varicella-zoster …; assay: cell-based or functional assay; remark: listed apart in the source
[6] = biological target: T2, varicella-zoster virus recombinant …; assay: competition ELISA on coated gH/gL; competitor: phage S8B8 (same clone), bound phage detected with HRP-anti-M13
[7] = biological target: T1, gH/gL protein of varicella-zoster …; assay: cell-based or functional assay; remark: listed apart in the source
[8] = biological target: T2, varicella-zoster virus recombinant …; assay: competition ELISA on coated gH/gL, scFv phage at fixed concentration, anti-M13 detection
[9] = biological target: T2, varicella-zoster virus recombinant …; assay: competition ELISA on coated gH/gL; competitor: phage S8E1 (same clone), bound phage detected with HRP-anti-M13
[10] = biological target: T2, varicella-zoster virus recombinant …; assay: competition ELISA on coated gH/gL; competitor: phage S7A10 (same clone), bound phage detected with HRP-anti-M13

T1 sequence (Q775J3 18-841): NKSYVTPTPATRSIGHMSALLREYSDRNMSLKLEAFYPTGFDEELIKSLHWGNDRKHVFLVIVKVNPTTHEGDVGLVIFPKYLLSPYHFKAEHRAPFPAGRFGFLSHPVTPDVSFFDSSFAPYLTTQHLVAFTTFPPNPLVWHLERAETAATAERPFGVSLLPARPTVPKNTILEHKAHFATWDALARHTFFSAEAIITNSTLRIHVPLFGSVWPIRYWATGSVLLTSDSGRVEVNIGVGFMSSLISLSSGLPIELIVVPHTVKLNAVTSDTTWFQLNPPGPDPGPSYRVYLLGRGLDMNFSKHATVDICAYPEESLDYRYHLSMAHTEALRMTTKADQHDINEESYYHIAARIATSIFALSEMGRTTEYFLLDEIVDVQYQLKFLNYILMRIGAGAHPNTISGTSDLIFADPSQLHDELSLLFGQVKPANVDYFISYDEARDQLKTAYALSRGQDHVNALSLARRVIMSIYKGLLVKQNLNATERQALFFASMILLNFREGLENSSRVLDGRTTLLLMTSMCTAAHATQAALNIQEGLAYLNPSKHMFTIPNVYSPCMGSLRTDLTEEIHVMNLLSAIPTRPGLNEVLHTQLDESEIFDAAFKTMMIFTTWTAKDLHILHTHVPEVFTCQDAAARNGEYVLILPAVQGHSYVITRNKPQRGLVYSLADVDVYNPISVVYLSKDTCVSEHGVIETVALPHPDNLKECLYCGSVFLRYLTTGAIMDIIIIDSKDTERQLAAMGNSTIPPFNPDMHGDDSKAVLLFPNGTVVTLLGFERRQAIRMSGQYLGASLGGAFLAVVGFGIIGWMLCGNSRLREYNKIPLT

B1: H4H8-L13C7-IgG1 (antibody, V domains shown)
VH: EVQLVESGGGVVQPGRSLRLSCGASGFTFNTYAMHWVRQAPGKGMEWVAVISYGGGNRYYAASVKGRFTISRDNSKNTLFLQLNTLRPEDTAVYYCARARDNHYFFGMDVWGRGTTVTVSS
VL: DIQMTQSPSSVSASVGDRVTITCRASQGISSWLAWYQQKPGKAPKLLIYAASSLQSGVPSRFSGSGSGTDFTLTISSLQPEDFATYYCQQATYFPINFGGGTKVEIKR
PRNT50(µg/mL), plaque reduction neutralisation of VZV on MRC5 cells [1]: > 0.4 µg/mL
PRNT50(µg/mL), plaque reduction, antibody added 24 h after infection of MRC5 cells (cell-to-cell transmission) [2]: > 2 µg/mL

B2: H4H8-L1B7-IgG1 (antibody, V domains shown)
VH: B1 VH
VL: B1 VL with T92N, Y93S, I96L, N97T
notes: also called H4H8-LIB7-IgG1; monoclonal antibody H4H8-L1B7
IC50 (read off the curve) [3]: ~2 nM

B3: H4H8-L13C1-IgG1 (antibody, V domains shown)
VH: B1 VH
VL: B1 VL with Q90E, A91G, T92F
PRNT50(µg/mL), plaque reduction neutralisation of VZV on MRC5 cells [1]: 0.016 µg/mL
PRNT50(µg/mL), plaque reduction, antibody added 24 h after infection of MRC5 cells (cell-to-cell transmission) [2]: 0.28 µg/mL

B4: H4H8-L14H8-IgG1 (antibody, V domains shown)
VH: B1 VH
VL: B1 VL with A91S, T92S, N97A
PRNT50(µg/mL), plaque reduction neutralisation of VZV on MRC5 cells [1]: 0.016 µg/mL
PRNT50(µg/mL), plaque reduction, antibody added 24 h after infection of MRC5 cells (cell-to-cell transmission) [2]: 0.31 µg/mL

B5: single chain fragment variable S8E1 (phage-displayed) (scFv)
scFv: EVKLVESGPGLVKPSQSLSLTCSVTGYSITSGYYWNWIRQFPGNKLEWMGYISYDGSNNYNTSLKNRISITRDTSKNQFFLKLNSVTTEDTATYYCAREDVNYPPYALDYWGQGTSVTVSSGGGGSGGGGSGGGGSSIVMTQTPLSLPVSLGDQASISCRSSQSLVHSNGNTYLHWYLQKPGQSPKLLIYKVSNRFSGVPDRFSGSGSGTDFTLKISRVEAEDLGVYFCSQSTHVPWTFGGGTKLEMK
notes: also called clone S8E1; phage S8E1
binding result [4]: binds

B6: S8B8-IgG1 (antibody, V domains shown)
VH: EVKLVESGGGLVQPGGSLKLSCAASGFTFSSYTMSWVRQTPEKRLEWVAFISNGGDNNYYADTVKGRFIISRDNAKNTLYLQMSSLKSEDTAMYYCARHNGNWGFAYWGQGTLVTVSA
VL: QNVLTQSPTTMAASPGEKITITCSASSSISSNYLHWYQQKPGFSPKLLIYRTSNLASGVPARFSGSGSGTSYSLTIGTMEAEDVATYYCQQGSSIPLTFGAGTKLEIKR
notes: also called monoclonal antibody S8B8
PRNT50(µg/mL), plaque reduction, antibody added 24 h after infection of MRC5 cells (cell-to-cell transmission) [5]: 3.21 µg/mL
IC50 (read off the curve) [6]: ~0.3 nM
PRNT50 (µg/mL), plaque reduction neutralisation of VZV (Oka) on MRC5 cells [7]: 0.38 µg/mL

B7: single chain fragment variable S8B8 (phage-displayed) (scFv)
scFv: EVKLVESGGGLVQPGGSLKLSCAASGFTFSSYTMSWVRQTPEKRLEWVAFISNGGDNNYYADTVKGRFIISRDNAKNTLYLQMSSLKSEDTAMYYCARHNGNWGFAYWGQGTLVTVSAGGGGSGGGGSGGGGSQNVLTQSPTTMAASPGEKITITCSASSSISSNYLHWYQQKPGFSPKLLIYRTSNLASGVPARFSGSGSGTSYSLTIGTMEAEDVATYYCQQGSSIPLTFGAGTKLEIK
notes: also called clone S8B8; phage S8B8
binding result [8]: binds

B8: S8E1-IgG1 (antibody, V domains shown)
VH: EVKLVESGPGLVKPSQSLSLTCSVTGYSITSGYYWNWIRQFPGNKLEWMGYISYDGSNNYNTSLKNRISITRDTSKNQFFLKLNSVTTEDTATYYCAREDVNYPPYALDYWGQGTSVTVSS
VL: SIVMTQTPLSLPVSLGDQASISCRSSQSLVHSNGNTYLHWYLQKPGQSPKLLIYKVSNRFSGVPDRFSGSGSGTDFTLKISRVEAEDLGVYFCSQSTHVPWTFGGGTKLEMKR
notes: also called monoclonal antibody S8E1
IC50 (read off the curve) [9]: ~0.5 nM
PRNT50(µg/mL), plaque reduction, antibody added 24 h after infection of MRC5 cells (cell-to-cell transmission) [5]: 2.82 µg/mL
PRNT50 (µg/mL), plaque reduction neutralisation of VZV (Oka) on MRC5 cells [7]: 0.38 µg/mL

B9: single chain fragment variable S7A10 (phage-displayed) (scFv)
scFv: QVQLKESGPGPVKPSQSLSLTCSVTGYSITSGNYWNWVRQFPGNKLEWMAYISYDGSTYYNPSLKNRISITRDTSKNQFFLKLNSVTTEDTATYYCAEGYYGYWFAYWGQGTLVTVSAGGGGSGGGGSGGGGSENVLTQSPAILSASPGEKVTMTCRASSSVSYMHWYQQKPGSSPKPWIYATSNLASGVPARFSGSGSGTSYSLTISRVEAEDAATYYCQQWSSNPFTFGSGTKLEIK
notes: also called clone S7A10; phage S7A10
binding result [4]: binds

B10: S7A10-IgG1 (antibody, V domains shown)
VH: QVQLKESGPGPVKPSQSLSLTCSVTGYSITSGNYWNWVRQFPGNKLEWMAYISYDGSTYYNPSLKNRISITRDTSKNQFFLKLNSVTTEDTATYYCAEGYYGYWFAYWGQGTLVTVSA
VL: ENVLTQSPAILSASPGEKVTMTCRASSSVSYMHWYQQKPGSSPKPWIYATSNLASGVPARFSGSGSGTSYSLTISRVEAEDAATYYCQQWSSNPFTFGSGTKLEIKR
notes: also called monoclonal antibody S7A10
PRNT50(µg/mL), plaque reduction, antibody added 24 h after infection of MRC5 cells (cell-to-cell transmission) [5]: 0.93 µg/mL
PRNT50 (µg/mL), plaque reduction neutralisation of VZV (Oka) on MRC5 cells [7]: 0.34 µg/mL
IC50 (read off the curve) [10]: ~2 nM
